Reference: patent US20160130324A1

Biological target: rhC1s (human) (UniProt P09871)
Experiment: inhibition of C1s cleavage of a colorimetric peptide substrate, mean OD value; C is the midpoint of the 4-parameter fit

rhC1s (human), sequence (P09871 16-688 limits assumed): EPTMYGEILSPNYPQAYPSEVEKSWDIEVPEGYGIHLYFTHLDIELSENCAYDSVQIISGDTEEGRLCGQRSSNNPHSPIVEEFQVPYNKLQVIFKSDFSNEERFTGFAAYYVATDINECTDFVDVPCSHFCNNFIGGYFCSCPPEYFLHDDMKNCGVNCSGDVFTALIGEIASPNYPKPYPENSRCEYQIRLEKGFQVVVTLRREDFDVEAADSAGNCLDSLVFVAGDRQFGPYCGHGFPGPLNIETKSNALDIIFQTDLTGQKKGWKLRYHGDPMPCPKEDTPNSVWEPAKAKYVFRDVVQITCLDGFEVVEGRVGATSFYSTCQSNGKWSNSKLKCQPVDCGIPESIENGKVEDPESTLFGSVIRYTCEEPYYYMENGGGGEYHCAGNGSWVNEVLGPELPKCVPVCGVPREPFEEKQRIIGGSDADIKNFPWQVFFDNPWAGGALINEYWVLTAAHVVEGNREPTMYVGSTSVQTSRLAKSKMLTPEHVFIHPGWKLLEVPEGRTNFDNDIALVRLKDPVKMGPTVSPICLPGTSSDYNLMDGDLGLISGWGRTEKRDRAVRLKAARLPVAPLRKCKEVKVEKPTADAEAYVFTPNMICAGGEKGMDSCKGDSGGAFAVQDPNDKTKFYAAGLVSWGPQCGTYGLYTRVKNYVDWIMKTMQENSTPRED

Work on HSA-C1-INH yielded an IC50 of 1.67 nM.

In the case of HSA_D3-C1-INH, the IC50 is reported as 1.45 nM.
